Data from patent US20260217821A1 (SPH BIOTHERAPEUTICS SHANGHAI, published 2026).

B1: VHH2 (VHH)
VHH: QVQLVESGGGLVQAGGSLRLSCAASGSIFSINAMAWYRHRPGMQRERVAAISSGGTTSYADSVKGRFTISRDNARDTLYLQMNSLKPEDTAMYYCAACPGDYTSTICNSDGMDYWGKGTLVTVSS
notes: Non-specific control VHH; also called non-specific VHH; negative control VHH2
B2: 4-92 (VHH)
VHH: QVQLQESGGGLVQPGGSLRLSCAASGFAFSSRAMSWVRQAPGKGLEWVSDINYDGAWTYYADSVKGRFTISRDNAKNTLYLQMNSLKPEDTAVYFCTDPWSIDGWGQGTQVTVSS
notes: Alpaca VHH from the phage library; not shown: one his tag and one HA tag at the C-terminus
B3: VHH1 (VHH)
VHH: QVQLVESGGGLVQPGGSLRLSCAASGFTFSDTWMNWVRQAPGKGLYWISAINPDGGNTAYADSVKGRFTISRDNAKNMVYLQMDNLRPEDTAMYYCAKGWVRLPDPDLVRGQGTQVTVSS
notes: Non-specific control VHH; also called non-specific VHH; negative control VHH1
B4: 5-95 (VHH)
VHH: QVQLQESGGGLVQPGGSLRLSCAASGFTFSTYSMTWVRQAPGKGLEWVSDINSGGSVAYYTDSVKGRFTASRDNAKNTLYLQMNSLKPEDTAVYYCYEGGYHGGSPRGHGTQVTVSS
notes: not shown: one his tag and one HA tag at the C-terminus
B5: 5-26 (VHH)
VHH: QVQLQESGGGLVQPGGSLRLSCAASGFTLDLYAIGWFRQAPGKERERVSCISSGGSTNYAESVKGRFTISRDNGKNTVYLQMNSLKPEDTAVYYCVRSVPSCGSYYFPPRNMNYWGKGTQVTVSS
notes: as for B2
B6: 5-09 (VHH)
VHH: QVQLQESGGGLVQPGGSLRLSCAASGFTLDDYAIGWFRQAPGKERERISCISSGGNTNYADSVKGRFTLSRDNAKNTVYLQMYSLKPEDTAVYYCTASIPSCASYYFPPRNMDYWGKGTQVTVSS
notes: also called 5-9; not shown: one his tag and one HA tag at the C-terminus
B7: hu5-26 ROR1 VHH CAR (other)
chain: QVQLVESGGGLVQPGGSLRLSCAASGFTLDLYAIGWFRQAPGKERGLVSCISSGGSTNYAESVKGRFTISRDNSKNTVYLQMNSLRSEDTAVYYCVRSVPSCGSYYFPPRNMNYWGQGTLVTVSSIEVMYPPPYLDNEKSNGTIIHVKGKHLCPSPLFPGPSKPFWVLVVVGGVLACYSLLVTVAFIIFWVKRGRKKLLYIFKQPFMRPVQTTQEEDGCSCRFPEEEEGGCELRVKFSRSADAPAYKQGQNQLYNELNLGRREEYDVLDKRRGRDPEMGGKPRRKNPQEGLYNELQKDKMAEAYSEIGMKGERRRGKGHDGLYQGLSTATKDTYDALHMQALPPR

How the values were obtained:
recombinant ROR1 protein = target: T1, recombinant ROR1 protein (UniProt Q01973 30-403, limits assumed); assay: ELISA, OD450 (FIG. 6C)
T1 construct: also called his-tagged ROR1; not shown: his tag

[1] = target: T2, ROR1 expressed on cells (A549, MB231, JeKo-1, MEC-ROR1) (UniProt Q01973 30-937); assay: flow cytometry on MB231 cells, 1 µg/ml, anti-HA APC
T2 construct: whole, on cells; also called ROR1-expressing cell lines; ROR1-positive cells

[2] = target: T2, ROR1 expressed on cells (A549, MB231, …); assay: flow cytometry on A549 cells, 1 µg/ml, anti-HA APC
[3] = target: T2, ROR1 expressed on cells (A549, MB231, …); assay: flow cytometry on JeKo-1 cells, 1 µg/ml, anti-HA APC
[4] = target: T2, ROR1 expressed on cells (A549, MB231, …); assay: cell-based or functional assay

T2 sequence (Q01973 30-937): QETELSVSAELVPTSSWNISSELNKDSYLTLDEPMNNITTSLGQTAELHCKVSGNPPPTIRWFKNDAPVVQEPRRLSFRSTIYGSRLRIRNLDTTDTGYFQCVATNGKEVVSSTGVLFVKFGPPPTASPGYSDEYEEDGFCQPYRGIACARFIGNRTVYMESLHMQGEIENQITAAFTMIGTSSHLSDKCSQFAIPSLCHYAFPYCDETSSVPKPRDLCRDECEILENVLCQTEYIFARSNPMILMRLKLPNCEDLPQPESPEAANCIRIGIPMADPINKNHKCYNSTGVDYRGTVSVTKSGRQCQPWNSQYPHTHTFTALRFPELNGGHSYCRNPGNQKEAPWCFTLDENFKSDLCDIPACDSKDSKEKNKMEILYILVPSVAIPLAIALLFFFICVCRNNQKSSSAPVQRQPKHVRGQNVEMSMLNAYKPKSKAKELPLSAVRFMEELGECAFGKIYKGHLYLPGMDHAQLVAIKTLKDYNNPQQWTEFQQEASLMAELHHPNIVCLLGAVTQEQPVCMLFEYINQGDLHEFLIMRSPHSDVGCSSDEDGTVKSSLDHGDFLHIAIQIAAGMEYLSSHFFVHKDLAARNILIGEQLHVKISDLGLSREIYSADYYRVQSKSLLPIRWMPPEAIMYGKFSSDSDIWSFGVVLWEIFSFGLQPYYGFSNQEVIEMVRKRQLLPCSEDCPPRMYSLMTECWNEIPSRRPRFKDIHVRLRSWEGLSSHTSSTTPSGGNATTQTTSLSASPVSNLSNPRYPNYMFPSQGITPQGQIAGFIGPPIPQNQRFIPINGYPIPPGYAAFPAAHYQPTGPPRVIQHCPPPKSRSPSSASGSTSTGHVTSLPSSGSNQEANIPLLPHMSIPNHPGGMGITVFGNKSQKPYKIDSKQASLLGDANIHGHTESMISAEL
T1 sequence (Q01973 30-403 limits assumed): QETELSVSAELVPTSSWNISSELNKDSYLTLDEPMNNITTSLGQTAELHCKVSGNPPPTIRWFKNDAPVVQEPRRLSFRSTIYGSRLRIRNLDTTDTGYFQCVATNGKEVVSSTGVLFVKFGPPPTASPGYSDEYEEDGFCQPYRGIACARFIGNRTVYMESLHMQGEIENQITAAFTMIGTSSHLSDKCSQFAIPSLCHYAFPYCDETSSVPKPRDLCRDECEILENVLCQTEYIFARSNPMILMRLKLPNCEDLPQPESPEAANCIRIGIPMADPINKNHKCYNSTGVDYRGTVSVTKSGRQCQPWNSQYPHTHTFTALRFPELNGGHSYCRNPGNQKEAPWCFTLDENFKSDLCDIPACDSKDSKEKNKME

| Binder | binding result (recombinant ROR1 protein) | proportion of binding cells [1] [%] | proportion of binding cells [2] [%] | proportion of binding cells [3] [%] | proportion of target cells (surviving, GFP-labeled) after 24 hours, effector-to-target ratio 1:1, MB231 [4] [%] | proportion of target cells (surviving, GFP-labeled) after 24 hours, effector-to-target ratio 1:1, MEC-ROR1 [4] [%] |
| --- | --- | --- | --- | --- | --- | --- |
| B1 | no binding | – | – | – | – | – |
| B2 | – | 74.3 | 34.6 | 2.96 | – | – |
| B3 | no binding | – | – | – | – | – |
| B4 | – | 53.3 | 11.8 | 1.18 | – | – |
| B5 | – | 96.8 | 97 | 99.7 | – | – |
| B6 | – | 61.7 | 18.5 | 1.9 | – | – |
| B7 | – | – | – | – | 2.96 | 1.93 |
